Legend:
[1] = target: full-length PcrV.6xhis (Pseudomonas aeruginosa); assay: SPR (Biacore T200), mAb captured via anti-human Fc, PcrV injected, 25 C
[2] = target: full-length PcrV.6xhis (Pseudomonas aeruginosa); assay: SPR (Biacore T200), mAb captured via anti-human Fc, PcrV injected, 37 C

**Q.** Which results are given for REGN1932 (antibody)?
**A.** 90 nM Ag Bound (RU) [1]: -5.9 RU; 90 nM Ag Bound (RU) [2]: -22.5 RU

Source: patent US20260184768A1
